Reference: article PMC10761072, “Post-transcriptional capping generates coenzyme A-linked RNA” (RNA Biology, 2023)

Substrate: CC(C)(COP(=O)(O)O)[C@@H](O)C(=O)NCCC(=O)NCCS
Assay: purified protein
Assay type: biochemical, Escherichia coli
Conditions: 10 µM pppAGGAA RNA as acceptor, 500 nM PPAT, 5 mM MgCl2, pH 7.5, 37°C, pPant 10-200 µM

B1: phosphopantetheine adenylyltransferase (PPAT, CoaD) (Escherichia coli K-12) (protein)
chain: MQKRAIYPGTFDPITNGHIDIVTRATQMFDHVILAIAASPSKKPMFTLEERVALAQQATAHLGNVEVVGFSDLMANFARNQHATVLIRGLRAVADFEYEMQLAHMNRHLMPELESVFLMPSKEWSFISSSLVKEVARHQGDVTHFLPENVHQALMAKLA
notes: recombinant full-length enzyme expressed from coaD plasmid and purified; hexamer
  Km: 14 µM
